Measured values as given in article PMC5548887.

Molecular target: HHARI full-length (residues 1-557) (UniProt Q9Y4X5)
Test: ITC; nanoITC, 25 °C, 50 mM NaCl, 10 mM Na2HPO4, 2 mM KH2PO4 pH 7.0; 200 μM UbcH7 proteins injected into 20 μM HHARI full length; 500 μM UbcH5b proteins into 50 μM HHARI full length

UbcH5b wild type, sequence (P62837 whole entry): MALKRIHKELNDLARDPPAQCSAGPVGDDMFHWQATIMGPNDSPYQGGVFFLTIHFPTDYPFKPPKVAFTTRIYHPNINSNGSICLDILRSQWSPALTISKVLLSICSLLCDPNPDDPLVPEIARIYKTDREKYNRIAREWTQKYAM
HHARI full-length (residues 1-557), sequence (Q9Y4X5 whole entry, the tested form may be a part): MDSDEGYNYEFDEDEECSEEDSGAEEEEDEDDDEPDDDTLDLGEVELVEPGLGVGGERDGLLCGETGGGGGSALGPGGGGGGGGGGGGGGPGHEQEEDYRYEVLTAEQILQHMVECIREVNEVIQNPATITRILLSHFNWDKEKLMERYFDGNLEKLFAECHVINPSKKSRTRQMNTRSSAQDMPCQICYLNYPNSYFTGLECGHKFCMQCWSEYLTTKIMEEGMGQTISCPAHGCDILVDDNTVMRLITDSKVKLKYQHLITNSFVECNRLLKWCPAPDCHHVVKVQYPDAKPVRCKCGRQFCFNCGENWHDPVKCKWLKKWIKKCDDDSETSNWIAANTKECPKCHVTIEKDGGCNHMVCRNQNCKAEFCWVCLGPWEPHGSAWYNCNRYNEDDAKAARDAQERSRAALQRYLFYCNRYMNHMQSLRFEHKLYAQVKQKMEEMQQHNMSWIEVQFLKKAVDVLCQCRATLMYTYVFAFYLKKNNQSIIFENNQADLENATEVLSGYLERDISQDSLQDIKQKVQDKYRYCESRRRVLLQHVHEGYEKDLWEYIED

Kd: 19.5 µM
Substance: UbcH5b wild type (from UniProt P62837 1-147) (enzyme; other documents disagree on this pair)
